Assay [1] has as its target EG-VEGF receptor (high affinity binding sites) on bovine adrenal cortical capillary endothelial cells (ACE) (bovine). Kind of assay: 125I-EG-VEGF competitive binding on ACE cells, Scatchard analysis.
For assay [2] the target is unchanged. Briefly: displacement of 125I-EG-VEGF by unlabeled tagged EG-VEGF on ACE cells. (Displacement assays read how much labelled ligand stays bound in the presence of the test substance.)
The target in assay [3] is EG-VEGF binding component on human umbilical vein endothelial cells (HUVEC) (human). Kind of assay: displacement of 125I-EG-VEGF by unlabeled tagged EG-VEGF on HUVEC and other non-responsive cells.

These results are taken from patent US7264801.

A value given as a limit tells only on which side of the number the result lay.

B1: EG-VEGF-his (human EG-VEGF with C-terminal … tag, baculovirus-produced) (ligand)
chain: AVITGACERDVQCGAGTCCAISLWLRGLRMCTPLGREGEECHPGSHKVPFFRKRKHHTCPCLPNLLCSRFPDGRYRCSMDLKNINFGHHHHHHHH
modifications: 125I-iodinated when used as tracer in the cell binding assays (Iodobead or lactoperoxidase method); the unlabeled form was the competitor and the ELISA antigen
In general, Kd refers to a measure of binding affinity in units of concentration. Read a low Kd as tighter binding. On to B1, for which the Kd in assay [1] fell in the range of 0.9 to 1 nM. Further, the ED50 in assay [2] was found to be 10 nM. Further, the competitor concentration that displaces the binding in assay [3] was > 270 nM.
